This note sets out measurements from paper PMC11417369, “DNA sequence and chromatin differentiate sequence-specific transcription factor binding in the human malaria parasite Plasmodium falciparum”.

To fix the notation:
T1: AP2-G D1 (Plasmodium falciparum, UniProt Q8I5I9 2123-2245)
T1 sequence: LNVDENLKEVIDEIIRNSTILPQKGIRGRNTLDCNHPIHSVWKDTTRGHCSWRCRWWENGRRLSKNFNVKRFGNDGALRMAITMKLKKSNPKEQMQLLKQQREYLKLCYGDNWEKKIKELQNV

B1: XGTACX_site4165 (dsDNA)
DNA 1: TTGTTTTTTTTTGGCTGTACGTTCATAAATTTTTTT
DNA 2: AAAAAAATTTATGAACGTACAGCCAAAAAAAAACAA
B2: XGTACX_site8319 (dsDNA)
DNA 1: AAAAAAATATTAATGTGTACATAATAATAACATATA
DNA 2: TATATGTTATTATTATGTACACATTAATATTTTTTT
B3: XGTACX_site4379 (dsDNA)
DNA 1: AATTAAATAAATGTATGTACATAATAAATATGTATT
DNA 2: AATACATATTTATTATGTACATACATTTATTTAATT
B4: XGTACX_site2966 (dsDNA)
DNA 1: AAACATATAAATCACGGTACACATTATTGAAAGTGT
DNA 2: ACACTTTCAATAATGTGTACCGTGATTTATATGTTT
B5: XGTACX_site3365 (dsDNA)
DNA 1: TATATGGGATATATGTGTACATATAAAATATGTATC
DNA 2: GATACATATTTTATATGTACACATATATCCCATATA
B6: XGTACX_site7911 (dsDNA)
DNA 1: TAGCATGATTTGCCTTGTACACAACCGTTTTAATAA
DNA 2: TTATTAAAACGGTTGTGTACAAGGCAAATCATGCTA
B7: XGTACX_site2720 (dsDNA)
DNA 1: TCCTATTTTATATAATGTACATAAATATATTACATA
DNA 2: TATGTAATATATTTATGTACATTATATAAAATAGGA
B8: XGTACX_site4915 (dsDNA)
DNA 1: AACGAAAACACTACGTGTACCAAACGTCCTACTAAC
DNA 2: GTTAGTAGGACGTTTGGTACACGTAGTGTTTTCGTT
B9: XGTACX_site6588 (dsDNA)
DNA 1: AAAAATTGAATGATGTGTACTTAAAAGAATATAGAA
DNA 2: TTCTATATTCTTTTAAGTACACATCATTCAATTTTT
B10: XGTACX_site894 (dsDNA)
DNA 1: AATAATGTTATAAATTGTACGTGTATTATTCATTAC
DNA 2: GTAATGAATAATACACGTACAATTTATAACATTATT
B11: XGTACX_site8448 (dsDNA)
DNA 1: AGGTTTCATTTAGCATGTACATATTATAAAAATTGT
DNA 2: ACAATTTTTATAATATGTACATGCTAAATGAAACCT
B12: XGTACX_site3663 (dsDNA)
DNA 1: TTTTTTTCTTAAAGATGTACTTTTTTAAAATAATCT
DNA 2: AGATTATTTTAAAAAAGTACATCTTTAAGAAAAAAA
B13: XGTACX_site1573 (dsDNA)
DNA 1: TCCATTGTCACCTTTTGTACTTAAATTTTTTCCTCC
DNA 2: GGAGGAAAAAATTTAAGTACAAAAGGTGACAATGGA
B14: XGTACX_site8237 (dsDNA)
DNA 1: TATAAAAATTAATATTGTACGTTTTATGAAAATAAA
DNA 2: TTTATTTTCATAAAACGTACAATATTAATTTTTATA
B15: XGTACX_site2117 (dsDNA)
DNA 1: TATAATATATGTATATGTACTTATGTTGAGAAACAT
DNA 2: ATGTTTCTCAACATAAGTACATATACATATATTATA
B16: XGTACX_site583 (dsDNA)
DNA 1: ATAATATATATATAGTGTACATTTGAATATATTTGA
DNA 2: TCAAATATATTCAAATGTACACTATATATATATTAT
B17: XGTACX_site5884 (dsDNA)
DNA 1: TCAAGTATTAAAATGGGTACATAAATATGTGTATAT
DNA 2: ATATACACATATTTATGTACCCATTTTAATACTTGA
B18: XGTACX_site1598 (dsDNA)
DNA 1: CTAATAAAAAAAAAAAGTACATATGACAATATAAAG
DNA 2: CTTTATATTGTCATATGTACTTTTTTTTTTTATTAG
B19: XGTACX_site5109 (dsDNA)
DNA 1: TTTTTTTTTTTTTTTGGTACACATTTTGGTTAATGG
DNA 2: CCATTAACCAAAATGTGTACCAAAAAAAAAAAAAAA
B20: XGTACX_site3520 (dsDNA)
DNA 1: ATATATATATATATATGTACTTATTTATCGTATTAT
DNA 2: ATAATACGATAAATAAGTACATATATATATATATAT
B21: XGTACX_site7939 (dsDNA)
DNA 1: GGATTTTTCGAATCATGTACATATTTAATTAAAAAA
DNA 2: TTTTTTAATTAAATATGTACATGATTCGAAAAATCC
B22: XGTACX_site2113 (dsDNA)
DNA 1: AAGATAAAATAATAAAGTACACATATAAATTGAAAA
DNA 2: TTTTCAATTTATATGTGTACTTTATTATTTTATCTT
B23: XGTACX_site8481 (dsDNA)
DNA 1: TCAATTTTTTAATGTTGTACTTTGTAAAAAAAAATA
DNA 2: TATTTTTTTTTACAAAGTACAACATTAAAAAATTGA
B24: XGTACX_site1392 (dsDNA)
DNA 1: ATATGTAAAATATGGGGTACGAAGGTAGGTAGGTAA
DNA 2: TTACCTACCTACCTTCGTACCCCATATTTTACATAT
B25: XGTACX_site8893 (dsDNA)
DNA 1: ATATATATATATATATGTACATATATATTGTTGATC
DNA 2: GATCAACAATATATATGTACATATATATATATATAT
B26: XGTACX_site6680 (dsDNA)
DNA 1: TTTGTATATTATTTTAGTACATAACATTGAAGATAT
DNA 2: ATATCTTCAATGTTATGTACTAAAATAATATACAAA
B27: XGTACX_site8514 (dsDNA)
DNA 1: AGTATTATATATATATGTACATAATATACATATATA
DNA 2: TATATATGTATATTATGTACATATATATATAATACT
B28: XGTACX_site1387 (dsDNA)
DNA 1: AAAAAAAATTATATATGTACTTATTAATCCTTTTAT
DNA 2: ATAAAAGGATTAATAAGTACATATATAATTTTTTTT
B29: XGTACX_site8539 (dsDNA)
DNA 1: AAATAAAGTAAAATATGTACATAAATTAAAACACAT
DNA 2: ATGTGTTTTAATTTATGTACATATTTTACTTTATTT
B30: XGTACX_site1944 (dsDNA)
DNA 1: TTCAAAAATATATAATGTACACAAATATAAAAGAAT
DNA 2: ATTCTTTTATATTTGTGTACATTATATATTTTTGAA
B31: XGTACX_site3785 (dsDNA)
DNA 1: ATATACATATGTGTGTGTACTTATATCACATTTTTG
DNA 2: CAAAAATGTGATATAAGTACACACACATATGTATAT
B32: XGTACX_site2864 (dsDNA)
DNA 1: CCTATATAATTATAATGTACTTGTAAAAAATATAAC
DNA 2: GTTATATTTTTTACAAGTACATTATAATTATATAGG
B33: XGTACX_site4551 (dsDNA)
DNA 1: ATATATATATATATTTGTACTTACATTTTTATTTAT
DNA 2: ATAAATAAAAATGTAAGTACAAATATATATATATAT
B34: XGTACX_site977 (dsDNA)
DNA 1: TTCAAATTGTTTATATGTACTTATAAAAATTGTCTG
DNA 2: CAGACAATTTTTATAAGTACATATAAACAATTTGAA
B35: XGTACX_site8691 (dsDNA)
DNA 1: AAAAATATTTTGGTTTGTACATATATTTTTACAATA
DNA 2: TATTGTAAAAATATATGTACAAACCAAAATATTTTT
B36: XGTACX_site1737 (dsDNA)
DNA 1: AGATCTATTATTTTTTGTACTTATATATAAACTTAA
DNA 2: TTAAGTTTATATATAAGTACAAAAAATAATAGATCT
B37: XGTACX_site5503 (dsDNA)
DNA 1: TATATATATATAGGTTGTACATTTTGATGTTTACGT
DNA 2: ACGTAAACATCAAAATGTACAACCTATATATATATA
B38: XGTACX_site8080 (dsDNA)
DNA 1: AAGCTTAAAAATGGGGGTACGTCATAGGGATTCAAC
DNA 2: GTTGAATCCCTATGACGTACCCCCATTTTTAAGCTT
B39: XGTACX_site6785 (dsDNA)
DNA 1: ATATATGGAAAGAGTAGTACTATTATAGGGGTGTTA
DNA 2: TAACACCCCTATAATAGTACTACTCTTTCCATATAT
B40: XGTACX_site1288 (dsDNA)
DNA 1: TAAAGAGTCATGTGGTGTACCTGCTTCACCACATAT
DNA 2: ATATGTGGTGAAGCAGGTACACCACATGACTCTTTA
B41: XGTACX_site1814 (dsDNA)
DNA 1: TTAAGAATATTTTCATGTACTCATTTTTTTTGTTAT
DNA 2: ATAACAAAAAAAATGAGTACATGAAAATATTCTTAA

The data set addresses T1, AP2-G D1. Description: gcPBM; about 25 ug protein; PBS, 1% milk, 0.2 mg/ml BSA, salmon testes DNA, 0.03% Triton X-100. As to conditions: tags: N-terminal GST (pGEX-4T-1), kept; label: surface-attached array probe.
Regarding B1, the binding signal was 11.9 ln median PBM intensity, better of two orientations.
On to B2, for which the binding signal was 11.9 ln median PBM intensity, better of two orientations.
As for B3, the binding signal is 11.7 ln median PBM intensity, better of two orientations.
As to B4, the binding signal is 11.6 ln median PBM intensity, better of two orientations.
As to B5, the binding signal was 11.8 ln median PBM intensity, better of two orientations.
As to B6, the binding signal was 11.7 ln median PBM intensity, better of two orientations.
In the case of B7 it was 11.5 ln median PBM intensity, better of two orientations; in that of B8, 11.5 ln median PBM intensity, better of two orientations; in that of B9, 11.8 ln median PBM intensity, better of two orientations.
With B10, the binding signal is 11.8 ln median PBM intensity, better of two orientations.
B11: the binding signal was 11.6 ln median PBM intensity, better of two orientations.
Regarding B12, the binding signal is 12 ln median PBM intensity, better of two orientations.
As to B13, the binding signal is 11.9 ln median PBM intensity, better of two orientations.
Consider B14, for which the binding signal was 11.9 ln median PBM intensity, better of two orientations.
As for B15, the binding signal was 11.7 ln median PBM intensity, better of two orientations.
Turning to B16, the binding signal is 11.6 ln median PBM intensity, better of two orientations.
Regarding B17, the binding signal is 12.1 ln median PBM intensity, better of two orientations.
As to B18, the binding signal was 12.1 ln median PBM intensity, better of two orientations.
As for B19, the binding signal was 12 ln median PBM intensity, better of two orientations.
As to B20, the binding signal was 11.9 ln median PBM intensity, better of two orientations.
The figure for B21 is 11.8 ln median PBM intensity, better of two orientations; for B22 it is 11.8 ln median PBM intensity, better of two orientations.
Consider B23, for which the binding signal was 11.7 ln median PBM intensity, better of two orientations.
Regarding B24, the binding signal is 11.7 ln median PBM intensity, better of two orientations.
As to B25, the binding signal was 11.8 ln median PBM intensity, better of two orientations.
In the case of B26 it was 11.4 ln median PBM intensity, better of two orientations; in that of B27, 11.6 ln median PBM intensity, better of two orientations.
Regarding B28, the binding signal was 12 ln median PBM intensity, better of two orientations.
Turning to B29, the binding signal was 11.6 ln median PBM intensity, better of two orientations.
With B30, the binding signal is 12 ln median PBM intensity, better of two orientations.
On to B31, for which the binding signal was 12 ln median PBM intensity, better of two orientations.
Consider B32, for which the binding signal was 11.8 ln median PBM intensity, better of two orientations.
Regarding B33, the binding signal was 11.6 ln median PBM intensity, better of two orientations.
Consider B34, for which the binding signal is 11.8 ln median PBM intensity, better of two orientations.
On to B35, for which the binding signal is 11.5 ln median PBM intensity, better of two orientations.
Turning to B36, the binding signal was 11.5 ln median PBM intensity, better of two orientations.
For the molecule B37, the binding signal is 11.5 ln median PBM intensity, better of two orientations.
As to B38, the binding signal was 11.7 ln median PBM intensity, better of two orientations.
For the molecule B39, the binding signal was 11.7 ln median PBM intensity, better of two orientations.
In the case of B40, the binding signal was 11.9 ln median PBM intensity, better of two orientations.
In the case of B41 it was 12 ln median PBM intensity, better of two orientations.
